Data set [1] deals with CD3 epsilon (Jurkat T cells) (Homo sapiens, UniProt P07766 P07766:23-207). The data set can be described thus: flow; binding to Jurkat cells, 1 h 37 C, PBS 1 mM MgCl2, BSA, tRNA. Particulars: tags: native on Jurkat cells ATCC TIB-152; label: Cy5-CpG' complementary strand. As to the method:
5 x10⁴ Jurkat cells were washed and re-suspended in x1 folding buffer that contain 0.1% BSA and 0.01% tRNA. 0.1-80 nM of CS6 aptamer were labelled with CpG′-Cy5 tag (1:1 ratio) and folded (95℃ 5 min, ice 10 min, and maintenance at 4℃). Next, the DNA aptamers were mixed with the cells and incubated for 1 hr at 37℃ in V shape 96 well plate under gentle shaking conditions. After incubation, the cells were washed twice with folding buffer X1 and analysed via flow cytometry (CytoFlex).
Subsequently CS6 effective concentration 50 (EC₅₀) was evaluated. A serial dilution of -Cy5 labelled aptamer was incubated with Jurkat cells for 1 hr at 37℃ and assessed for binding via flow cytometry (FIG. 27).

The target in data set [2] is T1, Notch2 (Homo sapiens, UniProt Q04721 Q04721:26-1677). The data set can be described thus: thermofluorimetric analysis. Particulars: tags: Fc fusion, R&D Systems. As to the method:
(§1) TFA was used to determine the binding of CTL3 with its putative target Notch2.100 nM CTL3, 1 uM SYBR green I (sigma), Fc-Notch2 human (R&D Systems) or Fc-CD160 (abcam) at 20, 40, 80, 160, and 320 nM were mixed together and SYBR green and fluorescence was measured from Temp=25° C. to Temp=95° C. at 1 degree/min using RT-PCR, in triplicates. The subsequent experiment was done with 50 nM of either CTL3 (SEQ ID NO: 3), scrambled-CTL3-A (SEQ ID NO: 86), or scrambled-CTL3-B (SEQ ID NO: 87); 1 µM SYBR green I (sigma); Fc-Notch2 human (R&D Systems), Fc-Notch2 mouse (R&D Systems) or Fc-Notch2 rat at 25, 50, 100 and 200 nM similar to the former experiment.

A further data set deals with T2, CD160 (UniProt O95971 O95971:25-159).
T2 sequence: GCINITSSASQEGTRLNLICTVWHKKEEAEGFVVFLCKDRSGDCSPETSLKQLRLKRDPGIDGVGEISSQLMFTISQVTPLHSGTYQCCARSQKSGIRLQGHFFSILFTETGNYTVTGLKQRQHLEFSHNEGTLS
The data set can be described thus: thermofluorimetric analysis; specificity control. To be noted: tags: Fc fusion, abcam. The method, then:
as §1
(§2) A Tₘ melting curve profile was generated by measuring SYBR green fluorescence during temperature gradient, to monitor aptamer-protein complexes in the presence of different concentrations of either Notch2 or the non-specific control (CD 160 protein). Only upon the addition of increasing concentrations of Notch2, and not CD160, a dose-dependent change in CTL3-associated fluorescence was measured (FIG. 19). When looking at the total fluorescence graph, high fluorescence intensity can be seen at 25° C., however, when examining the derivative rate of change of […] (dF/dT) curves, the temperature-dependent intensity reached a maximum at 37° C.
Background: DSF heats the sample and reads unfolding from a dye or from intrinsic fluorescence.

Data set [3] deals with T1, Notch2. In words: thermofluorimetric analysis with SYBR green; dose-dependent, saturates between 100-200 nM protein. Particulars: tags: Fc fusion, R&D Systems. As to the method:
as §1, §2

For data set [4], the target named is T3, CD3 epsilon (Homo sapiens, UniProt P07766 P07766:23-126). In words: HPLC size exclusion; negative control sequence. Particulars: tags: Fc chimera His tag, Abcam ab220590; label: Cy5. As to the method: Top five candidates (CS6, CS7, CS8, CS9, and CS8c; SEQ ID NOs: 88-92, respectively) were synthesized with a 5(5′) phosphothioated CpG motif and assayed for Human CD3ε (hCD3ε) binding via the HPLC size exclusion column. In this method, the aptamers were labelled with Cy5 complementary sequence to the CpG site (Cy5-CpG’). Then, the folded-labelled candidates are incubated, each, with the CD3ε- recombinant protein or with negative control IgG1 (1 hr at 37℃ and 4℃) and analyzed by HPLC ProSEC 300S size exclusion column (Agilent) at 570 nm absorption. Upon protein binding, the aptamer-protein complex has a greater mass than a free aptamer and as a result, the retention time (RT) at the column is expected to be shorter. Inversely, in the case of non-binding aptamer, the RT in the presence of protein will be the same as in the absence of the protein. As a control, PolyT sequence was used.
T3 sequence (P07766 23-126, one chain of several): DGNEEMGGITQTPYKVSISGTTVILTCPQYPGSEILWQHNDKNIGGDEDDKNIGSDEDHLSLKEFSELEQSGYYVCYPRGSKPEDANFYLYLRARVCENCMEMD
In general terms: Size exclusion chromatography separates by hydrodynamic size, large species first.

The target of data set [5] is T3, CD3 epsilon. The data set can be described thus: SPR. Particulars: tags: Fc chimera His tag, Abcam ab220590.

The text below walks through data of US20230193285, “BISPECIFIC PERSONALIZED APTAMERS” (Aummune Ltd., published 2023).

T1 sequence (Q04721 26-1677, one chain of several): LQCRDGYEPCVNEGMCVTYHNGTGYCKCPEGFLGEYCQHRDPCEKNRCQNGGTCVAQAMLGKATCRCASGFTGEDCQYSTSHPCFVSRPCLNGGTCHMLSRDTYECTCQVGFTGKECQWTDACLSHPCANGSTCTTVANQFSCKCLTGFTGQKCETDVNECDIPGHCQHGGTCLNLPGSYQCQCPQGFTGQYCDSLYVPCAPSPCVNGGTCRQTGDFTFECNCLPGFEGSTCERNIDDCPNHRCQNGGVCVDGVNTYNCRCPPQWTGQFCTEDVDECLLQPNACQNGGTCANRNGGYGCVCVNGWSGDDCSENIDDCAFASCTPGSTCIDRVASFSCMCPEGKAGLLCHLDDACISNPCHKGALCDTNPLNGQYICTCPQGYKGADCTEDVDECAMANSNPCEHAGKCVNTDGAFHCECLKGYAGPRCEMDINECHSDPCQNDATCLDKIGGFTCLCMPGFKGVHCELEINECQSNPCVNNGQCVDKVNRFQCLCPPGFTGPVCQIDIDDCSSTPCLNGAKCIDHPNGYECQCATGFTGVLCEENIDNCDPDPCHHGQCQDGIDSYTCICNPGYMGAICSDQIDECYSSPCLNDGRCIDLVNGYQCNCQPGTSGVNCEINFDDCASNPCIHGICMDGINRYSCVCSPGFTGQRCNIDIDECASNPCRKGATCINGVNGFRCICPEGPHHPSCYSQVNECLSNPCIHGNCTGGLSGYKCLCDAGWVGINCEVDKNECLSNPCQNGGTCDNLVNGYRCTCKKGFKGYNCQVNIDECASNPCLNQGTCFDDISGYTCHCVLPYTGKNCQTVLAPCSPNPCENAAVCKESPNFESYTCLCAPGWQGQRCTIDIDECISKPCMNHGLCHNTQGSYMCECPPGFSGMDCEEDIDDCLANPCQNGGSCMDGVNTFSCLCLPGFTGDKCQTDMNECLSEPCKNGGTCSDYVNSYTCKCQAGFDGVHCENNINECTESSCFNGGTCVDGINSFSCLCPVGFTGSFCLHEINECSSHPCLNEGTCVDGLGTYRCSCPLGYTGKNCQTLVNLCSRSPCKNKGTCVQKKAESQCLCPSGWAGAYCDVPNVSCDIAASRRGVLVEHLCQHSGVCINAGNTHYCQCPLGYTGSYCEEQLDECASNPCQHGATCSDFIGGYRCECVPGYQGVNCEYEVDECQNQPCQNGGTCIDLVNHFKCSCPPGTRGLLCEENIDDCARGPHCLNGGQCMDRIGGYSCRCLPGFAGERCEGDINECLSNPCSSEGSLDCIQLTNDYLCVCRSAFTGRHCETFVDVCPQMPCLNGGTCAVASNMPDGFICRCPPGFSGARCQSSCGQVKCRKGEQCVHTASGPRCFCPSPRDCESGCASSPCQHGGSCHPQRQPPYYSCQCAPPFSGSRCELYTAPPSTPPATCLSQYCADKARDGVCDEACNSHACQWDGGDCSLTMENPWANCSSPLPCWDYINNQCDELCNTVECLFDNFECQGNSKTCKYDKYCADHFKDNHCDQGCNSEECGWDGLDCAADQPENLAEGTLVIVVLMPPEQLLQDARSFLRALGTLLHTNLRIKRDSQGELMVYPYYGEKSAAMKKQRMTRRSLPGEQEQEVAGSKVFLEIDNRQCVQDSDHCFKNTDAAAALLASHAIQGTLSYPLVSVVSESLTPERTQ
CD3 epsilon (Jurkat T cells), sequence (P07766 23-207, one chain of several): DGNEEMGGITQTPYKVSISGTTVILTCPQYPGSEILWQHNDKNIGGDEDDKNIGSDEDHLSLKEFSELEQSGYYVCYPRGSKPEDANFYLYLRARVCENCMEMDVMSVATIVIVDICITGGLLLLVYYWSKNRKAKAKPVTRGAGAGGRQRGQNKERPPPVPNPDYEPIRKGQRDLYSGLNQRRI

B1: CpG1-CS6 (ssDNA)
DNA: TCGTCGTCGCGGTTCGCGTCCGTATCGTATAAGGGCTGCTTAGGATTGCGATAATACGGTCAA
modifications: PS on first five 5' nucleotides of CpG motif
The EC50 is the concentration that produces a half-maximal response. With B1, the EC50 in data set [1] worked out at 19.6 nM.

In the case of TCTTTCGTTAGCGCTTCTCTCTTGCGATTCCGACCGCATATTCACGTCTT (ssDNA) [Scrambled-CTL3-B], the binding result with Notch2 [2] is given as “no binding”. With GCATACCTTTCGTATGCCTTTTTGACCCGTATTTTTGCCCTACCCTTCGG (ssDNA) [CTL3], the results for the binding result with CD160 and with Notch2 [3] were “no binding” and “binds”, respectively.

B2: PolyT control (ssDNA)
DNA: TCGTCGTCGCGGTTCGCGTCCGTTTTTTTTTTTTTTTTTTTTTTTTTTTTTTTTTTTTTTTTTTTTTTTTTTT
B2: in the data set with CD3 epsilon [4], the binding result was “no binding”. The term Kd denotes a measure of binding affinity in units of concentration. Molecule ATCGTATAAGGGCTGCTTAGGATTGCGATAATACGGTCAA (ssDNA) [CS6] came in with a Kd with CD3 epsilon [5] of 31 nM. For the molecule GTTCTTATAATCGCCTCTGCGCTATGTTCTTGCTCGCCTTCCATATCGCT (ssDNA) [Scrambled-CTL3-A], the binding result in the data set with Notch2 [2] is “no binding”.
